Assays:
[1] = target: cynomolgus monkey DLL4 extracellular domain (cynomolgus monkey); test: Biacore SPR
[2] = target: cynomolgus monkey DLL4 extracellular domain (cynomolgus monkey); test: binding ELISA
[3] = target: cynomolgus monkey DLL4 extracellular domain (cynomolgus monkey); test: Biacore SPR; head says nM, kd/ka gives M

Binder | koff [1] | kon [1] | EC50 [2] | Kd [3]
h1A11.1 (antibody, V domains shown) VH: EVQLVESGGGLVQPGGSLRLSCAASGFTFSNFPMAWVRQAPGKGLEWVATISSSDGTTYYRDSVKGRFTISRDNAKNSLYLQMNSLRAEDTAVYYCARGYYNSPFAYWGQGTLVTVSS VL: DIQMTQSPSSLSASVGDRVTITCRASEDIYSNLAWYQQKPGKAPKLLIYDTNNLADGVPSRFSGSGSGTDFTLTISSLQPEDFATYYCQQYNNYPPTFGQGTKLEIKR | 0.00255 s⁻¹ | 144000 M⁻¹ s⁻¹ | 0.13 nM | 18 nM
h1A11.B4 (antibody, V domains shown) VH: EVQLVESGGGLVQPGGSLRLSCAASGFTFSNFPMAWVRQAPGKGLEWVATISSSDGTTYYRDSVKGRFTISRDNAKNSLYLQMNSLRAEDTAVYYCARGYYNSPFAYWGQGTLVTVSS VL: DIQMTQSPSSLSASVGDRVTITCRASQDIYYNLAWYQQKPGKAPKLLIFDTNILADGVPSRFSGSGSGTDFTLTISSLQPEDFATYFCQQYDYVPPTFGQGTKLEIK | 0.00099 s⁻¹ | 143000 M⁻¹ s⁻¹ | – | 6.9 nM
h1A11.A7 (antibody, V domains shown) VH: EVQLVESGGGLVQPGGSLRLSCAASGFTFSNFPMAWVRQAPGKGLEWVATISSSDGTTYYRDSVKGRFTISRDNAKNSLYLQMNSLRAEDTAVYYCARGYYNSPFAYWGQGTLVTVSS VL: DIQMTQSPSSLSASVGDRVTITCRASQDIYINLAWYQQKPGKAPKLLIFDTSDLADGVPSRFSGSGSGTDFTLTISSLQPEDFATYYCQQYDYYPPTFGQGTKLEIK | 0.00124 s⁻¹ | 158000 M⁻¹ s⁻¹ | – | 7.8 nM
h1A11.A12 (antibody, V domains shown) VH: EVQLVESGGGLVQPGGSLRLSCAASGFTFSNFPMAWVRQAPGKGLEWVATISSSDGTTYYRDSVKGRFTISRDNAKNSLYLQMNSLRAEDTAVYYCARGYYNSPFAYWGQGTLVTVSS VL: DIQMTQSPSSLSASVGDRVTITCRASQDIYYNLAWYQQKPGKSPKLLIFDTSSLADGVPSRFSGSGSGTDFTLTISSLQPEDFATYFCQQYDWYPPTFGQGTKLEIK | 0.00162 s⁻¹ | 158000 M⁻¹ s⁻¹ | – | 10 nM
h1A11.A2 (antibody, V domains shown) VH: EVQLVESGGGLVQPGGSLRLSCAASGFTFSNFPMAWVRQAPGKGLEWVATISSSDGTTYYRDSVKGRFTISRDNAKNSLYLQMNSLRAEDTAVYYCARGYYNSPFAYWGQGTLVTVSS VL: DIQMTQSPSSLSASVGDRVTITCRASQDIYINLAWYQQKPGKSPKLLIFDTNDLADGVPSRFSGSGSGTDFTLTISSLQPEDFATYYCQQYDYVPPTFGQGTKLEIK | 0.000527 s⁻¹ | 134000 M⁻¹ s⁻¹ | – | 3.9 nM

More lines, now with the values ahead:

koff [1] | kon [1] | EC50 [2] | Kd [3] | Binder
0.000178 s⁻¹ | 117000 M⁻¹ s⁻¹ | – | 1.5 nM | h1A11.B5 (antibody, V domains shown) VH: EVQLVESGGGLVQPGGSLRLSCAASGFTFRYFPMSWVRQAPGKGLEWVASISGSDGWASYRDSVKGRFTISRDNAKNSLYLQMNSLRAEDTAVYYCARGYYNSPFASWGQGTLVTVSS VL: DIQMTQSPSSLSASVGDRVTITCRASQDIWNNLAWYQQKPGKSPKLLIFDTSYLADGVPSRFSGSGSGTDFTLTISSLQPEDFATYYCQQYDWYPPTFGQGTKLEIK
3.84e-05 s⁻¹ | 137000 M⁻¹ s⁻¹ | – | 0.28 nM | h1A11.E12 (antibody, V domains shown) VH: EVQLVESGGGLVQPGGSLRLSCAASGFTFRYFPMAWVRQAPGKGLEWVATISGSDEWPNYRDSVKGRFTISRDNAKNSLYLQMNSLRAEDTAVYYCARGYYNSPFAFWGQGTLVTVSS VL: DIQMTQSPSSLSASVGDRVTITCRASQEIYRNLAWYQQKPGKSPKLLIFDTSVLADGVPSRFSGSGSGTDSTLTISSLQPEDFATYYCQQYTYYPPTFGQGTKLEIK
4.6e-05 s⁻¹ | 131000 M⁻¹ s⁻¹ | – | 0.35 nM | h1A11.H2 (antibody, V domains shown) VH: EVQLVESGGGLVQPGGSLRLSCAASGFTFGNFPMSWVRQAPGKGLEWVASISSSDSWATIGDSVKGRFTISRDNAKNSLYLQMNSLRAEDTAVYYCARGYYNSPFAFWGQGTLVTVSS VL: DIQMTQSPSSLSASVGDRVTITCRASQEIYRNLAWYQQKPGKSPKLLIFDTSVLADGVPSRFSGSGSGTDSTLTISSLQPEDFATYYCQQYTYYPPTFGQGTKLEIK

From patent US20160031986A1
